The record followed here is US20110033518A1.

“And” between values parts separate entries of the source, which are not always exact repeats. Equal values may be shown once.

For assay [1], the target named is human ABCA1 transporter on stably transfected HeLa cells (human) (UniProt O95477). The experiment in a line: cell-based or functional assay.
Assay [2] shares this target. The experiment in a line: direct binding of 125I-L-37pA at 1 µg/ml to ABCA1-transfected HeLa cells, 1 hour, 4 C. Details: unit not given here.
Assay [3] has the same target. In words: two-step sequential competitive binding on ABCA1-transfected HeLa cells, competitor at 8 µM, tracer 125I-L-37pA.

UniProt O95477, sequence (O95477 whole entry): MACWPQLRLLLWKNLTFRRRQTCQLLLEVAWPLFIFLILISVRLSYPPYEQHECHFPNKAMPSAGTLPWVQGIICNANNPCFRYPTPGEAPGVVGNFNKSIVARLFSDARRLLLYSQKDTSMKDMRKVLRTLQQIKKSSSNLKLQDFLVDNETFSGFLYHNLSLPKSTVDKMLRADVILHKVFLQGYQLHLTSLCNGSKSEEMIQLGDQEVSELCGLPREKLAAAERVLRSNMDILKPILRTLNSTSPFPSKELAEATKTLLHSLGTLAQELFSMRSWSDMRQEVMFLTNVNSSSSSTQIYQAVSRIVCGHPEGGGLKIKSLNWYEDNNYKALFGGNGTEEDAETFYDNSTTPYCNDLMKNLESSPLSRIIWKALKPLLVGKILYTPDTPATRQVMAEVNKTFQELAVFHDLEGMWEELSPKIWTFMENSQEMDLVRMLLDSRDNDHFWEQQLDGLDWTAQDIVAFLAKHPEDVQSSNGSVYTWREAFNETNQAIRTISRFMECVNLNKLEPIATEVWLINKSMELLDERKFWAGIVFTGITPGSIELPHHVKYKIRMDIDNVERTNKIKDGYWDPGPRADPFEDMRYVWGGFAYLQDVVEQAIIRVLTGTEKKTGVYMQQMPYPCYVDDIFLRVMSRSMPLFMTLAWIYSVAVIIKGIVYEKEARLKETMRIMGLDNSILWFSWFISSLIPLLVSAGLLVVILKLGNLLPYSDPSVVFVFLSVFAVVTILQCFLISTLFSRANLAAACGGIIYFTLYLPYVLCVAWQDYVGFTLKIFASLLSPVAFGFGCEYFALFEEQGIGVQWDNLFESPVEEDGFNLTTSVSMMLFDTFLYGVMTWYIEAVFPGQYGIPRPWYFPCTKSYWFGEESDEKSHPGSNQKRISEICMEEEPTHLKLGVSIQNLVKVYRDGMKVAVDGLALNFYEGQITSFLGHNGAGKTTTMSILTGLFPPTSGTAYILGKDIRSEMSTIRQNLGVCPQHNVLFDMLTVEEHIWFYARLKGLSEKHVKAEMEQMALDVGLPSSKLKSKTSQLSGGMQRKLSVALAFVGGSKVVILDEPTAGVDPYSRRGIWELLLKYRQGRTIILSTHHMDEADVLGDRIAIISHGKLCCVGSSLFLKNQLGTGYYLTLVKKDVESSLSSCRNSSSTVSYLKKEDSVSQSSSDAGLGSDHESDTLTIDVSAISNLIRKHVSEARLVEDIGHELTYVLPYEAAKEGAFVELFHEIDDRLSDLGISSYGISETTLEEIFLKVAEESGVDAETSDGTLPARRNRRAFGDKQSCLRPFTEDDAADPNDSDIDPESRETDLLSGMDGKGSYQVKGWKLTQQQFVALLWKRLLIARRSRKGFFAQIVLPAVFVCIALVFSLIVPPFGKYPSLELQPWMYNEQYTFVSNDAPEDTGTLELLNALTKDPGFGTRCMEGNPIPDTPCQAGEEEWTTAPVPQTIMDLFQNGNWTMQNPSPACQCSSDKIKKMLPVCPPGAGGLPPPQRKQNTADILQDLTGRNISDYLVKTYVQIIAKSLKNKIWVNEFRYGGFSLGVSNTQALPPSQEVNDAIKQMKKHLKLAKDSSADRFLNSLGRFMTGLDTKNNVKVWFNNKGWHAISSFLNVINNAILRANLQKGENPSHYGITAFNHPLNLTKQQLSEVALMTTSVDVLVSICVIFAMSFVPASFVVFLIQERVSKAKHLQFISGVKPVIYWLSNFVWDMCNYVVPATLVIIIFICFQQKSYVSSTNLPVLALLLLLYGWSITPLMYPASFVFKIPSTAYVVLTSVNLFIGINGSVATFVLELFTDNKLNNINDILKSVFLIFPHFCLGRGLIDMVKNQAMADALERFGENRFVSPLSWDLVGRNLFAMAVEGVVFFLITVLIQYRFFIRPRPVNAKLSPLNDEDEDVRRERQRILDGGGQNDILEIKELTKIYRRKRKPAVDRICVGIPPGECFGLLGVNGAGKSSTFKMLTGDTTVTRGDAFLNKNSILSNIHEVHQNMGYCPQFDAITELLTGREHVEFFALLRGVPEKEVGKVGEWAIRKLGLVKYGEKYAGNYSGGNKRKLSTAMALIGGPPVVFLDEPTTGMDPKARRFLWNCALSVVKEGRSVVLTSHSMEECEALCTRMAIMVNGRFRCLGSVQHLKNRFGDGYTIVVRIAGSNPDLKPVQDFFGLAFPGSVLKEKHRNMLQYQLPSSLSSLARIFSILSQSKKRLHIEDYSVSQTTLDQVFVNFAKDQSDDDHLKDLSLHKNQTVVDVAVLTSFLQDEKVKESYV

Regarding DWLKAFYDKVAEKLKEAFPDWLKAFYDKVAEKLKEAF [L-37pA peptide], in assay [1], the cholesterol and phospholipid efflux, ABCA1 cells against control cells, 18 hours was 2 fold and 4 fold; the concentration at which lipid efflux began to show saturation came out at 2 µM. Besides, the cell-bound radiolabeled peptide in the absence of a competitor in assay [2] is 35. This molecule also gave a percent of labeled L-37pA binding blocked in assay [3] of 40%.
